B1: LINE1-mini (parent)
chain: GGCAGAGCUCAACACAGCGUGGCAAAGUGGCUGUGGCUAGACUGCC

Variants of: B1
Assay: self-cleavage, relative activity (ratio to wild type); higher = more cleavage; in vitro, sequencing; the parent is a self-cleaving ribozyme

Row | Variant | self-cleavage
1 | GGCAGAGCUCAACACAGCGUGUCAAAGUGGCUGGGGCUAGACUGCC | 0.26
2 | GGCAGAGCUCAACACAGCGUGUCAAAGUGGCUGCGGCUAGACUGCC | 0.44
3 | GGCAGAGCUCAACACAGCGUGUCAAAGUGGCUGAGGCUAGACUGCC | 0.19
4 | GGCAGAGCUCAACACAGCGUGUCAAAGUGGCUGUGGCUAGACUGCG | 0.91
5 | GGCAGAGCUCAACACAGCGUGUCAAAGUGGCUGUGGCUAGACUGCU | 1.22
6 | GGCAGAGCUCAACACAGCGUGUCAAAGUGGCUGUGGCUAGACUGCA | 1.15
7 | GGCAGAGCUCAACACAGCGUGGAAAAGUGGGUGUGGCUAGACUGCC | 0.08
8 | GGCAGAGCUCAACACAGCGUGGAAAAGUGGAUGUGGCUAGACUGCC | 0.26
9 | GGCAGAGCUCAACACAGCGUGGAAAAGUGGUUGUGGCUAGACUGCC | 0.45
10 | GGCAGAGCUCAACACAGCGUGUCAAAGUUGCUGUGGCUAGACUGCC | 0.72
11 | GGCAGAGCUCAACACAGCGUGUCAAAGUCGCUGUGGCUAGACUGCC | 0.84
12 | GGCAGAGCUCAACACAGCGUGUCAAAGUAGCUGUGGCUAGACUGCC | 1.67
13 | GGCAGAGCUCAACACAGCGUGUCAAAGUGGCUGUGGCUAGACUUCC | 0.27
14 | GGCAGAGCUCAACACAGCGUGUCAAAGUGGCUGUGGCUAGACUCCC | 0.34
15 | GGCAGAGCUCAACACAGCGUGUCAAAGUGGCUGUGGCUAGACUACC | 0.85
16 | GGCAGAGCUCAACACAGCGUGCCAAAGUGGCUGUGGCGAGACUGCC | 0.05
17 | GGCAGAGCUCAACACAGCGUGCCAAAGUGGCUGUGGCCAGACUGCC | 0.68
18 | GGCAGAGCUCAACACAGCGUGUCAAAGUGCCUGUGGCUAGACUGCC | 2.28
19 | GGCAGAGCUCAACACAGCGUGUCAAAGUGACUGUGGCUAGACUGCC | 1.49

Row | Variant | self-cleavage
20 | GGCAGAGCUCAACACAGCGUGUCAAAGUGUCUGUGGCUAGACUGCC | 1.03
21 | GGCAGAGCUCAACACAGCGUGGAACAGUGGCUGUGGCUAGACUGCC | 0.61
22 | GGCAGAGCUCAACACAGCGUGGAAGAGUGGCUGUGGCUAGACUGCC | 0.49
23 | GGCAGAGCUCAACACAGCGUGGAAUAGUGGCUGUGGCUAGACUGCC | 0.78
24 | GGCAGAGCUCAACACAGCGUGUCAAAGUGGCUGUGGCUAGACCGCC | 0.18
25 | GGCAGAGCUCAACACAGCGUGUCAAAGUGGCUGUGGCUAGACAGCC | 0.06
26 | GGCAGAGCUCAACACAGCGUGUCAAAGUGGCUGUGGCUAGACGGCC | 0.03
27 | GGCAGAGCUCAACACAGCGUGUCAAAGUGGUUGUGGCUAGACUGCC | 0.4
28 | GGCAGAGCUCAACACAGCGUGUCAAAGUGGAUGUGGCUAGACUGCC | 0.2
29 | GGCAGAGCUCAACACAGCGUGUCAAAGUGGGUGUGGCUAGACUGCC | 0.22
30 | GGCAGAGCUCAACACAGCGUGUCAAAGUGGCUGUGGCUGGACUGCC | 0.08
31 | GGCAGAGCUCAACACAGCGUGUCAAAGUGGCUGUGGCUCGACUGCC | 0.14
32 | GGCAGAGCUCAACACAGCGUGUCAAAGUGGCUGUGGCUUGACUGCC | 1
33 | GGCAGAGCUCAACACAGCGUGUCAAAGUGGCUGUGGCCAGACUGCC | 2.12
34 | GGCAGAGCUCAACACAGCGUGUCAAAGUGGCUGUGGCGAGACUGCC | 0.04
35 | GGCAGAGCUCAACACAGCGUGUCAAAGUGGCUGUGGCAAGACUGCC | 0.46
36 | GGCAGAGCUCAACACAGCGUGUCAACGUGGCUGUGGCUAGACUGCC | 1.53
37 | GGCAGAGCUCAACACAGCGUGUCAAGGUGGCUGUGGCUAGACUGCC | 1.68
38 | GGCAGAGCUCAACACAGCGUGUCAAUGUGGCUGUGGCUAGACUGCC | 1.59

Row | Variant | self-cleavage
39 | GGCAGAGCUCAACACAGCGUGGAGAAGUGGCUGUGGCUAGACUGCC | 0.53
40 | GGCAGAGCUCAACACAGCGUGGAUAAGUGGCUGUGGCUAGACUGCC | 1
41 | GGCAGAGCUCAACACAGCGUGGACAAGUGGCUGUGGCUAGACUGCC | 0.85
42 | GGCAGAGCUCAACACAGCGUGUCAAAGUGGCUGUGCCUAGACUGCC | 0.1
43 | GGCAGAGCUCAACACAGCGUGUCAAAGUGGCUGUGACUAGACUGCC | 0.15
44 | GGCAGAGCUCAACACAGCGUGUCAAAGUGGCUGUGUCUAGACUGCC | 0.06
45 | GGCAGAGCUCAACACAGCGUGUCAAAGUGGCUGUGGUUAGACUGCC | 0.05
46 | GGCAGAGCUCAACACAGCGUGUCAAAGUGGCUGUGGGUAGACUGCC | 0.03
47 | GGCAGAGCUCAACACAGCGUGUCAAAGUGGCUGUGGAUAGACUGCC | 0.06
48 | GGCAGAGCUCAACACAGCGUGUAAAAGUGGCUGUGGCUAGACUGCC | 1.25
49 | GGCAGAGCUCAACACAGCGUGUGAAAGUGGCUGUGGCUAGACUGCC | 2.27
50 | GGCAGAGCUCAACACAGCGUGUUAAAGUGGCUGUGGCUAGACUGCC | 1.8
51 | GGCAGAGCUCAACACAGCGUGUCAAAGUGGCUGUAGCUAGACUGCC | 0.15
52 | GGCAGAGCUCAACACAGCGUGUCAAAGUGGCUGUUGCUAGACUGCC | 0.39
53 | GGCAGAGCUCAACACAGCGUGUCAAAGUGGCUGUCGCUAGACUGCC | 0.22
54 | GGCAGAGCUCAACACAGCGUGGAAAAGUGGCUGUGGCUAGGCUGCC | 0.43
55 | GGCAGAGCUCAACACAGCGUGGAAAAGUGGCUGUGGCUAGCCUGCC | 0.05
56 | GGCAGAGCUCAACACAGCGUGGAAAAGUGGCUGUGGCUAGUCUGCC | 0.84

From the RNAGym collection of RNA variant scans (doi:10.7554/elife.90254)
